Laboratory results reported in US20240409663A1 (CONCEPT TO MEDICINE BIOTECH, published 2024).
Positions count from the first letter of the chain named.

Columns and labels:
[1] = biological target: T1, human GPC3 on cells (human, UniProt P51654 25-554); assay: FACS, GPC3-CHOK1 cells
T1 construct: whole, on cells; over-expressed on CHOK1 cells or endogenous on HEPG2, Hep3B and Huh-7 hepatocellular carcinoma cells; the cell line is named under assay; also called GPC3-CHOK1 cells; human GPC3 over-expressed CHOK1 cells
Experimental: (§1) To evaluate the antigen binding property, the humanized antibodies were analyzed for their binding to human GPC3 over-expressed CHOK1 cells, HEPG2 cells, Hep3B cells and Huh-7 cells by FACS. Briefly, GPC3-CHOK1 cells, HEPG2 cells, Hep3B cells and Huh-7 cells were firstly incubated with Fc blocking reagent at 4° C. for 15 mins. Cells were washed by FACS buffer and divided to each well with 4-fold serially diluted humanized antibodies starting at 10 μg/mL at 4° C. for 60 mins. Cells were washed by FACS buffer and fixed with 2% PFA at RT for 15 mins. […] The 16 humanized antibodies were separated into two plates.

[2] = biological target: T2, human GPC3-his tag protein (human, UniProt P51654 25-559, limits assumed); assay: SPR Biacore 8K, mAb captured, affinity ranking
T2 construct: recombinant soluble antigen used as analyte in all Biacore runs; also called recombinant GPC3 protein; rhGPC3-His; not shown: His tag
Experimental: To evaluate antigen binding activity, the chimeric antibody's affinity was measured by Biacore 8K. A serial dilution of human GPC3-his tag protein was injected over captured chimeric antibody 52H5D3B8-6 #-VH+VL for 3 mins at a flow rate of 30 μl/min. The antigen was allowed to dissociate for 720 s. Among the multi detection doses, two concentrations with most close affinity to the chimeric antibody's affinity were chosen for the 16 humanized antibodies' affinity detection.

[3] = biological target: T1, human GPC3 on cells; assay: FACS, Hep3B cells
Experimental: as §1

[4] = biological target: T1, human GPC3 on cells; assay: FACS, Huh-7 cells
Experimental: as §1

[5] = biological target: T1, human GPC3 on cells; assay: FACS, HEPG2 cells
Source text: (§2) FACS was used to evaluate the binding activity of 52H5D3B8-6 #-VH1+VL1 and 52H5D3B8-6 #-VH2+VL3 with comparison to GC33 (Chugai Pharmaceutical) and Y035 (Carsgen Therapeutics, U.S. Patent Application US20190046659) on human GPC3 over-expressed CHOK1 cells and HEPG2 cells.

[6] = biological target: T1, human GPC3 on cells; assay: cell-based or functional assay
[7] = biological target: T1, human GPC3 on cells; assay: FACS, GPC3-CHOK1 cells; remark: listed apart in the source
Experimental: To evaluate the antigen binding property, the affinity maturated antibodies were analyzed for their binding to human GPC3 over-expressed CHOK1 cells by FACS as previously described.

[8] = biological target: T1, human GPC3 on cells; assay: FACS, GPC3-CHOK1 cells; remark: listed apart in the source
Source text: as §2

[9] = biological target: T1, human GPC3 on cells; assay: FACS, HEPG2 cells; remark: listed apart in the source
Experimental: as §1

[10] = biological target: T1, human GPC3 on cells; assay: cell-based or functional assay; remark: listed apart in the source
[11] = biological target: T1, human GPC3 on cells; assay: FACS, GPC3-CHOK1 cells; remark: listed apart in the source
Experimental: as §1

[12] = biological target: T1, human GPC3 on cells; assay: FACS, GPC3-CHOK1 cells; remark: listed apart in the source
Experimental: (§3) Cell-based binding: FACS was used to evaluate the binding activity of 52H5D3B8, 52H5D3B8-6 # chimeric mAbs and GC33 antibody on human GPC3 over-expressed CHOK1 cells, Hep3B cells and Huh-7 cells.
(§4) Briefly, GPC3-CHOK1 cells, Hep3B cells or Huh-7 cells were firstly incubated with Fc blocking reagent at 4° C. for 15 mins. Cells were washed by FACS buffer and divided to each well with 3-fold serially diluted 52H5D3B8, 52H5D3B8-6 # chimeric mAbs or GC33 antibody starting at 30 μg/mL at 4° C. for 60 mins. Cells were washed by FACS buffer and fixed with 2% PFA at RT for 15 mins. […] Samples were washed twice with FACS buffer.

[13] = biological target: T1, human GPC3 on cells; assay: FACS, HEPG2 cells; remark: listed apart in the source
Experimental: as §1

[14] = biological target: T1, human GPC3 on cells; assay: FACS, GPC3-CHOK1 cells; remark: listed apart in the source
Experimental: Briefly, GPC3-CHOK1 cells were firstly incubated with Fc blocking reagent at 4° C. for 15 mins. Cells were washed by FACS buffer and divided to each well with 3-fold serially diluted 52H5D3B8, 52H5D3B8-1 #, 52H5D3B8-2 #, 52H5D3B8-3 #, 52H5D3B8-4 #, 52H5D3B8-5 #, 52H5D3B8-6 #, 52H5D3B8-7 #, 52H5D3B8-8 #, 52H5D3B8-9 #, 52H5D3B8-10 #, 52H5D3B8-11 #, 52H5D3B8-12 #, 52H5D3B8-13 #, 52H5D3B8-14 # and 52H5D3B8-15# chimeric mAbs starting at 30 μg/mL at 4° C. for 60 mins. Cells were washed by FACS buffer and fixed with 2% PFA at RT for 15 mins. […] Samples were washed twice with FACS buffer.

[15] = biological target: T1, human GPC3 on cells; assay: FACS, Huh-7 cells; remark: listed apart in the source
Experimental: as §1

[16] = biological target: T2, human GPC3-his tag protein; assay: SPR Biacore, mAb captured on CM5, GPC3-his dilution series (full kinetics)
Experimental: The binding of the humanized antibodies to recombinant GPC3 protein (human GPC3-his tag) was tested by Biacore using a capture method. 52H5D3B8-6 #-V+VL, 52H5D3B8-6 #-VH1+VL1, 52H5D3B8-6 #-VH1+VL3, 52H5D3B8-6 #-V1+VL4, 52H5D3B8-6 #-VH2+VL4, 52H5D3B8-6 #-VH3+VL1, 52H5D3B8-6 #-VH3+VL3 mAbs were captured using CM5 sensor chip. A serial dilution of human GPC3-his tag protein was injected over captured antibody for 2 mins at a flow rate of […]. The antigen was allowed to dissociate for 360 s. All the experiments were carried out on a Biacore T200.

[17] = biological target: T1, human GPC3 on cells; assay: FACS, Hep3B cells; remark: listed apart in the source
Experimental: as §1

[18] = biological target: T2, human GPC3-his tag protein; assay: SPR Biacore 8K, mAb captured, one or two doses GPC3-his
Experimental: The binding of the optimized antibodies of 52H5D3B8 mAb to human GPC3-his was tested with Biacore using a capture method. A single dose or two doses of human GPC3-his tag protein was injected over captured antibody. All the experiments were carried out on a Biacore 8K. Data analysis was carried out using Biacore 8K evaluation software.

[19] = biological target: T1, human GPC3 on cells; assay: FACS, Hep3B cells; remark: listed apart in the source
Experimental: as §3, §4

[20] = biological target: T1, human GPC3 on cells; assay: FACS, Huh-7 cells; remark: listed apart in the source
Experimental: as §3, §4

B1: 52H5D3B8-6#-VH2+VL3 (antibody, V domains shown)
VH: QVQLVQSGAEVKKPGASVKVSCKASGYTFTDYEMHWVRQAPGQGLEWIGAIHPGSGGTAYNQKFKGRVTMTADTSTSTVYMELSSLRSEDTAVYYCTRYYSYAYWGQGTLVTVSS
VL: DIVMTQTPLSLSVTPGQPASISCRSSQSLVHSNGNTYLQWYLQKPGQSPKLLIYKVSNRFSGVPDRFSGSGSGTDFTLKISRVEAEDVGVYYCFQSIHVPYTFGGGTKLEIK
notes: humanized
B1 showed an EC50 [1] of 0.0411 µg/mL, a Kd [2] of 0.962 nM and a koff [2] of 0.000642 s⁻¹. The kon [2] was 668000 M⁻¹ s⁻¹, the EC50 [3] was 0.0705 µg/mL and the EC50 [4] was 0.0384 µg/mL. The EC50 [5] was 0.354 nM, the “EC50 of ADCC cytotoxicity (primary NK cells, LDH), HEPG2 cells” value [6] was 0.104 nM and the “EC50 of ADCC cytotoxicity (primary NK cells, LDH), Huh-7 cells” value [6] was 0.106 nM. For the same binder, the EC50 [7] was 0.412 nM, the EC50 [8] was 0.344 nM and the EC50 [9] was 0.0438 µg/mL. The “EC50 of ADCC signaling (Jurkat-hCD16a-NFAT luciferase reporter), HEPG2 cells” value [10] was 0.174 nM and the “EC50 of ADCC signaling (Jurkat-hCD16a-NFAT luciferase reporter), Huh-7 cells” value [10] was 0.265 nM.

B2: 52H5D3B8-6# chimeric mAb (antibody, V domains shown)
VH: QVQLQQSGAELVRPGASVKLSCKALGYTFTDYEMHWVKQTPVHGLEWIGAIHPGSGGTAYNQKFKGKATLTADKFSSTGYMELSSLTSEDSAVYYCTRYYSYAYWGQGTLVTVSA
VL: B1 VL with I2V, S12P, T14S, P15L, Q17D, P18Q, T77I, V88L, Y92F
notes: CDR3 mutant of the 52H5D3B8 chimeric mAb (human IgG1); also called 52H5D3B8-6#-VH+VL
Binder B2 has an EC50 [1] of 0.035 µg/mL, a Kd [2] of 0.425 nM and a koff [2] of 0.000307 s⁻¹. The kon [2] was 721000 M⁻¹ s⁻¹, the EC50 [11] was 0.0389 µg/mL and the EC50 [12] was 0.0474 µg/mL. It also gave an EC50 [3] of 0.0643 µg/mL, an EC50 [4] of 0.0347 µg/mL and an EC50 [13] of 0.0469 µg/mL. The EC50 [14] was 0.0601 µg/mL, the EC50 [15] was 0.0378 µg/mL and the Kd [16] was 0.446 nM. It also gave a koff [16] of 0.000265 s⁻¹, a kon [16] of 595000 M⁻¹ s⁻¹ and an EC50 [17] of 0.0664 µg/mL. For the same binder, the Kd [18] was 0.368 nM, the koff [18] was 0.000289 s⁻¹ and the kon [18] was 785000 M⁻¹ s⁻¹. For the same binder, the EC50 [9] was 0.0452 µg/mL, the EC50 [19] was 0.0982 µg/mL and the EC50 [20] was 0.0501 µg/mL.
